Reference: patent US20240270821A1, “GIP/GLP1/GCG TRI-RECEPTOR AGONISTS AND USES THEREOF” (priority 2023, published 2024)
Starred links: 1 amine or outer side, 2 acyl side, 3 side chain; linkers in the order of their positions; H or OH if unused. Non-standard residues stand in square brackets, D forms with d. Groups on a side chain read outwards from the residue. No end group written: not given here. *: point of attachment. C20 diacid = O=C(O)CCCCCCCCCCCCCCCCCCC(=O)*; Phe(4-CN) = N#Cc1ccc(C[C@H](N)C(=O)O)cc1; αMePhe(2-F) = C[C@](N)(Cc1ccccc1F)C(=O)O; γGlu = O=C(O)[C@H](CCC(=O)[*:2])N[*:1]; AEEA = NCCOCCOCC(=O)O; Aib = CC(C)(N)C(=O)O

T1: human GIP receptor (human) (UniProt P48546)
T1 sequence (looked up): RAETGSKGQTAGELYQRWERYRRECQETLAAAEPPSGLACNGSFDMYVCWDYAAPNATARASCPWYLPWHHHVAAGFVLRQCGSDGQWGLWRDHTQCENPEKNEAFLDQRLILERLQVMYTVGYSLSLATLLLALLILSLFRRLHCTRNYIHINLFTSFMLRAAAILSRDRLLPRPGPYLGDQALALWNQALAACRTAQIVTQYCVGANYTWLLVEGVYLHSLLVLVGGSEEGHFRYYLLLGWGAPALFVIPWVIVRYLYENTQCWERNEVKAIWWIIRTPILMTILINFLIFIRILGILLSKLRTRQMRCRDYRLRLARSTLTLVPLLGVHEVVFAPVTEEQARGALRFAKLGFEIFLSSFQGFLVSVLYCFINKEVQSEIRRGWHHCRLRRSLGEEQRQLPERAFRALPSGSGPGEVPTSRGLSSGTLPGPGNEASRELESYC


Tests used:
Assay in all cases: cell-based or functional assay
[1] = biological target: human glucagon receptor (human) (UniProt P47871)
[2] = biological target: T1, human GIP receptor (human)
hGLP-1R = hGLP-1R (Homo sapiens, UniProt P43220)
Chain of hGLP-1R (P43220 24-463): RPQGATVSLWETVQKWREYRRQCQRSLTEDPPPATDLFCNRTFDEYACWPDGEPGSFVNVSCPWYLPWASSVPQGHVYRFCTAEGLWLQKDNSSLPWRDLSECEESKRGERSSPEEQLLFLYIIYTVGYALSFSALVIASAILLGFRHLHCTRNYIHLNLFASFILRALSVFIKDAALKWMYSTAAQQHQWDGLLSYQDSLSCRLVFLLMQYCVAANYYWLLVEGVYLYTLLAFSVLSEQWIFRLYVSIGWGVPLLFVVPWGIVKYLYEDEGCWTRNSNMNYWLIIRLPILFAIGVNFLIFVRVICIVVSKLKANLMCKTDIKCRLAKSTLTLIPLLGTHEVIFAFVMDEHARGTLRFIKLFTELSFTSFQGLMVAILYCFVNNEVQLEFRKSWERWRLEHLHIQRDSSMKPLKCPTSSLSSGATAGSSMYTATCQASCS

Chain of human glucagon receptor (human) (P47871 26-477): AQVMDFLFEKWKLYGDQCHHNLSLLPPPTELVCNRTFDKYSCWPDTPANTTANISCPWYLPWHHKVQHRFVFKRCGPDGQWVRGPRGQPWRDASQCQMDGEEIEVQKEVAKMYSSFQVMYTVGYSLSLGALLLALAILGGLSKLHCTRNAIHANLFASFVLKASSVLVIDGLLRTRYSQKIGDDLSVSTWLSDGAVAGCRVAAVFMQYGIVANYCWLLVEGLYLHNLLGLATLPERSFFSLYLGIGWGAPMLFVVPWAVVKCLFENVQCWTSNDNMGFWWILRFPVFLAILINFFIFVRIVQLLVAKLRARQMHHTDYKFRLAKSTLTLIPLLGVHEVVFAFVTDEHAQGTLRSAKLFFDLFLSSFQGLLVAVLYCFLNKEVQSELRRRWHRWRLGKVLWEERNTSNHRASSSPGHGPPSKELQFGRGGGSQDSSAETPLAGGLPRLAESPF

| Binder | Relative cAMP EC50 [1] [nM] | cAMP Rel EC50, nM (1% HSA) [1] [nM] | Relative cAMP EC50 [2] [nM] | cAMP Rel EC50, nM (1% HSA) [2] [nM] | Relative cAMP EC50 (hGLP-1R) [nM] | cAMP Rel EC50, nM (1% HSA) (hGLP-1R) [nM] | cAMP Rel EC50 (in the presence of 1% HSA) [1] [nM] | cAMP Rel EC50 (in the presence of 1% HSA) [2] [nM] | cAMP Rel EC50 (in the presence of 1% HSA) (hGLP-1R) [nM] |
| --- | --- | --- | --- | --- | --- | --- | --- | --- | --- |
| YXQGTXTSDXXIXLDXKAQXXFIEXLLEGGPSSGEPPPE (synthetic construct; SITE 2: note = 2-Aminoisobutyric Acid; SITE 6: note = alpha-methyl-2-fluoro-L-phenylalanine; SITE 10: note = 3-(4-Pyridyl)-L-alanine; SITE 11: note = alpha-methyl-L-serine; SITE 13: note = alpha-methyl-leucine; SITE 16: note = L-ornithine; SITE 17: note = Lysine is chemically mo) [Example 377] | 1.36 | 163 | 0.0377 | 11.1 | 0.367 | 29.4 |  |  |  |
| YXQGTXTSDXXIXLDXKAQXXFIEXLLEGGPSSXEPPPE (synthetic construct; SITE 2: note = 2-Aminoisobutyric Acid; SITE 6: note = alpha-methyl-2-fluoro-L-phenylalanine; SITE 10: note = 3-(4-Pyridyl)-L-alanine; SITE 11: note = alpha-methyl-L-serine; SITE 13: note = alpha-methyl-leucine; SITE 16: note = L-ornithine; SITE 17: note = Lysine is chemically mo) [Example 380] | 1.17 | 150 | 0.0346 | 7.77 | 0.354 | 30.6 |  |  |  |
| Y[Aib]QGT[αMePhe(2-F)]TSDYSKLLDKIAQKAFIEYLIEGGPSSGAPPPEGE-NH2 (not fully specified (residue 20)) [Example 357] | 6.21 | 1810 | 0.077 | 42.9 | 0.625 | 248 |  |  |  |
| Y[Aib]QGT[αMePhe(2-F)]TSD[Phe(4-CN)]SKLLDKIAQK([AEEA-γGlu-C20 diacid])AFIEYLIEGGPSSGEPPPSGS-NH2 [Example 364] | 10.2 | 3190 | 0.457 | 101 | 1.1 | 260 |  |  |  |
| Y[Aib]QGT[αMePhe(2-F)]TSD[Phe(4-CN)]SKLLDKIAQK([AEEA-γGlu-C20 diacid])AFIEYLIEGGPSSGAPPPSGS-NH2 [Example 363] | 13.6 | 4080 | 0.375 | 91.8 | 1.47 | 217 |  |  |  |
| YXQGTXTSDYSIXLDKKAAXAFIEYLIETGPSSGAPPPSEG (synthetic construct; SITE 2: note = 2-Aminoisobutyric Acid; SITE 6: note = alpha-methyl-2-fluoro-L-phenylalanine; SITE 13: note = alpha-methyl-leucine; SITE 17: note = Lysine is chemically modified through conjugation of the epsilon-amino group of the Lysine side chain with (2-[2-(2-Amino-ethoxy)-et)) [Example 383] | 1.27 | 530 | 0.0406 | 32.3 | 0.258 | 79.1 |  |  |  |
| YXQGTFTSDFSKXLDKKAQXAFIEYLLEAGPSSGAPPPGEG (not fully specified; synthetic construct; SITE 2: note = 2-Aminoisobutyric Acid; SITE 13: note = alpha-methyl-leucine; SITE 17: note = Lysine is chemically modified through conjugation of the epsilon-amino group of the Lysine side chain with (2-[2-(2-Amino-ethoxy)-ethoxy]-acetyl)-(gamma-Glu)-CO-(CH2) 18-CO2H; SITE 20: n) [Example 34] | 3.47 |  | 0.122 |  | 1.16 |  | 855 | 44.2 | 242 |
| YXQGTFTSDFSKXLDKKAQXAFIEYLLEGGPSSGEPPPEEG (not fully specified; synthetic construct; SITE 2: note = 2-Aminoisobutyric Acid; SITE 13: note = alpha-methyl-leucine; SITE 17: note = Lysine is chemically modified through conjugation of the epsilon-amino group of the Lysine side chain with (2-[2-(2-Amino-ethoxy)-ethoxy]-acetyl)-(gamma-Glu)-CO-(CH2) 18-CO2H; SITE 20: n) [Example 35] | 4.32 |  | 0.55 |  | 3.05 |  | 1390 | 194 | 1130 |
| Y[Aib]QGT[αMePhe(2-F)]TSDYSKLLDKIAQKAFIEYLIEGGPSSGAPPPSGE-NH2 (not fully specified (residue 20)) [Example 356] | 4.76 | 2680 | 0.0613 | 19.2 | 0.599 | 206 |  |  |  |
| YXQGTFTSDYXIXLDKKAQXAFIEYLIEGGPSSGAPPPS (synthetic construct; SITE 2: note = 2-Aminoisobutyric Acid; SITE 11: note = alpha-methyl-L-serine; SITE 13: note = alpha-methyl-leucine; SITE 17: note = Lysine is chemically modified through conjugation of the epsilon-amino group of the Lysine side chain with (2-[2-(2-Amino-ethoxy)-ethoxy]-acetyl)2-) [Example 382] | 3.72 | 1050 | 0.0368 | 17.7 | 0.291 | 61.5 |  |  |  |
| YXQGTXTSDYSILLDKKAQXAFIEYLLEGGPSSGAPPPS (not fully specified; synthetic construct; SITE 2: note = 2-Aminoisobutyric Acid; SITE 6: note = alpha-methyl-2-fluoro-L-phenylalanine; SITE 17: note = Lysine is chemically modified through conjugation of the epsilon-amino group of the Lysine side chain with (2-[2-(2-Amino-ethoxy)-ethoxy]-acetyl)2-(gamma-Glu)-CO-(CH2 )18) [Example 385] | 1 | 700 | 0.0141 | 4.03 | 0.235 | 86.1 |  |  |  |
| YXQGTXTSDYSILLDKKAQXAFIEYLEEGGPSSGAPPPS (not fully specified; synthetic construct; SITE 2: note = 2-Aminoisobutyric Acid; SITE 6: note = alpha-methyl-2-fluoro-L-phenylalanine; SITE 17: note = Lysine is chemically modified through conjugation of the epsilon-amino group of the Lysine side chain with (2-[2-(2-Amino-ethoxy)-ethoxy]-acetyl)-(gamma-Glu)-CO-(CH2) 16-) [Example 387] | 2.14 | 184 | 0.0276 | 5.64 | 0.255 | 26.5 |  |  |  |
| YXQGTXTSDYSILLDKKAQXAFIEYLEEGGPSSGAPPPS (synthetic construct; SITE 2: note = 2-Aminoisobutyric Acid; SITE 6: note = alpha-methyl-L-phenylalanine; SITE 17: note = Lysine is chemically modified through conjugation of the epsilon-amino group of the Lysine side chain with (2-[2-(2-Amino-ethoxy)-ethoxy]-acetyl)-(gamma-Glu)-CO-(CH2) 16-CO2H; SIT) [Example 392] | 3.02 | 611 | 0.0571 | 28.7 | 0.253 | 41.5 |  |  |  |
